Non-standard residues stand in square brackets, D forms with d. No end group written: not given here. pS = N[C@@H](COP(=O)(O)O)C(=O)O
B1: Pin1 WW domain (domain or fragment)
chain: MADEEKLPPGWEKRMSRSSGRVYYFNHITNASQWERPSGNS

Legend:
Assay in all cases: ITC
CPEB1 pS184 peptide = CPEB1 pS184 peptide (UniProt Q9BZB8, phosphoserine at 184)
CPEB1 pS248 peptide = CPEB1 pS248 peptide (UniProt Q9BZB8, phosphoserine at 248)
CPEB1 pS138 peptide = CPEB1 pS138 peptide (UniProt Q9BZB8, phosphoserine at 138)
CPEB1 pS144 peptide = CPEB1 pS144 peptide (UniProt Q9BZB8, phosphoserine at 144)
CPEB1 pS423 peptide = CPEB1 pS423 peptide (UniProt Q9BZB8, phosphoserine at 423)
full-length Pin1 = full-length Pin1 (UniProt Q13526 1-163)
Pin1 WW domain = molecular target: B1

Sequence of full-length Pin1 (Q13526 whole entry, the tested form may be a part): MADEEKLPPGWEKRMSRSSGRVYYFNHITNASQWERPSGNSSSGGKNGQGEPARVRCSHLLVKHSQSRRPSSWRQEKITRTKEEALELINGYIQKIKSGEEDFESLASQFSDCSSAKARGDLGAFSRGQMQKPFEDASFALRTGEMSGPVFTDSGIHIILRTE

Binder	Kd (CPEB1 pS184 peptide) [µM]	Kd (CPEB1 pS248 peptide) [µM]	Kd (CPEB1 pS138 peptide) [µM]	Kd (CPEB1 pS144 peptide) [µM]	Kd (CPEB1 pS423 peptide) [µM]	Kd (full-length Pin1) [µM]	Kd (Pin1 WW domain) [µM]
B1	28.6	47.6	71.3	75.4	158	–	–
RI[pS]PPLPF-NH2 [CPEB1 pS210 peptide]	–	–	–	–	–	32.3	30.3
